The supplement of paper PMC10724198
± gives the standard deviation of the averaged measurements.

Each sequence was assayed on Saccharomyces cerevisiae (assay: protein stability index of tFT-peptide fusion (C-terminal peptide) (PSI (0-1 scale)); higher = more stable (slower turnover)). Details: genetic background: wild type; temperature: 30 C.
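Note: PSI is a weighted mean of sequencing reads over stability bins, variants kept only with over 10 reads, mCherry proximal and sfGFP distal, peptide attached via GGGS linker.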

In order of falling protein stability index:
1. LPASPPLSGLIF  0.823 ± 0.14
2. LRVSPVALPSSW  0.81 ± 0.13
3. LPPHAPIPRWKP  0.776 ± 0.17
4. LPPDSLRPPGPP  0.761 ± 0.017
5. LRRLSSIGWSRI  0.754 ± 0.14
6. LPCFPSLNRNPL  0.7397 ± 0.0015
7. LPSHAPRRPTFP  0.7403 ± 0.0056
8. LPTPSQYFFPPP  0.736 ± 0.018
9. LSFLAPGPPPAR  0.735 ± 0.039
10. LPRFTPPLPPPL  0.734 ± 0.0096
11. LPAARQSVLPPA  0.732 ± 0.0085
12. LPLPPPPLLPAP  0.732 ± 0.057
13. LPVPFFPPCPFR  0.732 ± 0.012
14. LPRSRLAPPPCS  0.73 ± 0.015
15. LPLPHAPPPPPT  0.7233 ± 0.0026
16. LQIFRSRCFGGL  0.722 ± 0.13
17. LPSQRPWLAQSI  0.717 ± 0.01
18. LPPTPTLPLVPP  0.7153 ± 0.0053
19. LPRASPKARTLR  0.714 ± 0.075
20. LPDSHHQTMGVF  0.711 ± 0.055
21. LPPPRPLPIPSP  0.711 ± 0.047
22. LPSPYPPPRPLP  0.711 ± 0.034
23. LPRREQILRKGS  0.71 ± 0.023
24. LSALPLTRPLAR  0.709 ± 0.043
25. LMCSSGGGCSCG  0.706 ± 0.023
26. LNTVRKSKDKAI  0.706 ± 0.19
27. LPCVSTCCSCLL  0.706 ± 0.011
28. LLTGKTVPKDST  0.705 ± 0.016
29. LPSTQSPPPPLP  0.705 ± 0.077
30. LRPFSPSPPRPF  0.705 ± 0.013
31. LPYHSSPPSSSP  0.702 ± 0.046
32. LNGRYGGFGHRC  0.7009 ± 0.007
33. LNLLCGFRQVGG  0.701 ± 0.013
34. LPLPPPPPCCSF  0.701 ± 0.015
35. LRHLPHPTCSLL  0.7 ± 0.06
36. LPPPFPWSPSGP  0.698 ± 0.066
37. LRFIIPSDLSFV  0.696 ± 0.03
38. LLWGSSPDGGQG  0.694 ± 0.019
39. LRAPPPPAQPFV  0.694 ± 0.012
40. LRGNDRLLSKRI  0.694 ± 0.022
41. LPPPPRPRSLLS  0.693 ± 0.047
42. LPTKPVPIPRHY  0.693 ± 0.052
43. LSATGSCSPRRG  0.693 ± 0.014
44. LNNLTVVDVAGL  0.69 ± 0.017
45. LPSSPFPPLPVT  0.6889 ± 0.0042
46. LPTPTPPPALRS  0.689 ± 0.053
47. LPKTSPRSRRER  0.6868 ± 0.0053
48. LRSVNVLAALFS  0.686 ± 0.043
49. LQAKRTAGPGEH  0.68423 ± 0.00012
50. LPSARLPPPPPR  0.683 ± 0.021
51. LPLIPTSSRRHS  0.682 ± 0.024
52. LPPFPLPPPLLS  0.68 ± 0.1
53. LPRNQPVPFPCH  0.677 ± 0.0094
54. LLTFSSCALPYR  0.676 ± 0.092
55. LPCPSPPPSPLS  0.675 ± 0.06
56. LPPRLPLSLDVL  0.675 ± 0.086
57. LSADVNRRLGLS  0.674 ± 0.035
58. LNTETNVVLLEG  0.671 ± 0.035
59. LRGVDYEQMSDP  0.667 ± 0.11
60. LSAPLPPLSAPP  0.667 ± 0.0099
61. LRPLSPPTLLPA  0.664 ± 0.022
62. LPSEAPSLLAPP  0.663 ± 0.084
63. LSCLIPLPAPPL  0.662 ± 0.052
64. LPPPLLPTPMAP  0.661 ± 0.09
65. LRSLSLSYVALR  0.6592 ± 0.0017
66. LSAFLLLMPRLP  0.659 ± 0.01
67. LPLPPALPSPSL  0.658 ± 0.027
68. LRGSDYIVIGGS  0.656 ± 0.025
69. LPMGGMFVARSI  0.653 ± 0.059
70. LPGCGSYLSGNV  0.651 ± 0.056
71. LPRASQFLLPVP  0.651 ± 0.065
72. LPRPPPFSPPPP  0.651 ± 0.11
73. LRVNFPLHDPHP  0.65 ± 0.049
74. LRHLLAPPPRPP  0.649 ± 0.016
75. LPLLSSLLALLY  0.647 ± 0.042
76. LPSSAVDLYTRP  0.6468 ± 0.0059
77. LQKRKQMRKIKE  0.646 ± 0.019
78. LRPPPAAHSLGP  0.645 ± 0.012
79. LPLPPPCSRVLF  0.644 ± 0.074
80. LNVVSRLLACGL  0.642 ± 0.022
81. LRLLSFFITSFL  0.64 ± 0.13
82. LSCRLDGIVIWF  0.64 ± 0.051
83. LPTYPPTLPVPS  0.638 ± 0.04
84. LLYLFMSSRFLW  0.6369 ± 0.003
85. LRFVTAGEFEMK  0.635 ± 0.061
86. LPPPPSPLPPRP  0.627 ± 0.048
87. LPTASLLPPPPP  0.626 ± 0.078
88. LRALLSHPRRCA  0.625 ± 0.034
89. LSAQNNTGIVKT  0.623 ± 0.0084
90. LRGLLWFSRVGS  0.618 ± 0.011
91. LRKTNQKIRSFK  0.614 ± 0.037
92. LPTPSSSYLYPA  0.611 ± 0.017
93. LPSLLPESGLCF  0.604 ± 0.0086
94. LRQWRRERAIII  0.601 ± 0.042
95. LRLLPRIVSPSV  0.6 ± 0.022
96. LPPGDPPPRGPP  0.597 ± 0.045
97. LPPHPPSPPFLP  0.588 ± 0.023
98. LRGIGVSWWKGL  0.583 ± 0.023
99. LSALSLFLFFLR  0.58 ± 0.046
100. LPSPPPSSPLPP  0.56 ± 0.048
101. LRFELCLCIEPA  0.53 ± 0.059
